{
  "source": "paper PMC3912200",
  "about": "“Structural and Functional Characterization of Cargo-Binding Sites on the μ4-Subunit of Adaptor Protein Complex 4” (PLoS ONE, 2014)",
  "key": {"C-terminal domain of μ3A": {"tested_on": "C-terminal domain of μ3A", "details": "previously shown; ref [18]; cited from earlier work", "source_text": "(§1) This tyrosine-based signal is related to the YXXØ motif, which is the signal contained in the cytosolic tail of transmembrane proteins that binds to a different site on the μ2 subunit of AP-2 [28], or on the μ3A subunit of AP-3 [30]. In this study, we wanted to determine whether this putative second binding site on μ4, referred here as the μ2-binding site (Figure 1, A and B), played any role in the binding to the YKFFE signal of APP ..."}, "[1]": {"target": "T1, recombinant μ4 C-terminal domain, wild-type (Homo sapiens, UniProt O00189)", "T1 construct": "recombinant C-terminal domain of human μ4 (residues 160-453); GST followed by TEV protease cleavage site (N, cleaved yes); made in house; host or cells: E. coli B834(DE3)pLysS", "T1 sequence (O00189 160-453)": "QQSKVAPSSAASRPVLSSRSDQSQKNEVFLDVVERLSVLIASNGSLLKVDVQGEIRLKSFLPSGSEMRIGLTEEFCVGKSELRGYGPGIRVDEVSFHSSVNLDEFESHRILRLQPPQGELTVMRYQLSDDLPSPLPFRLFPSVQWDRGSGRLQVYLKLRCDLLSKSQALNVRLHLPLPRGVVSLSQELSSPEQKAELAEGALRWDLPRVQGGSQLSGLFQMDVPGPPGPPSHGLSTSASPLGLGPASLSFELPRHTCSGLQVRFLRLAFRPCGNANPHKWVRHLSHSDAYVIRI", "assay": "Isothermal titration calorimetry with wild-type μ4", "format": "binding", "details": "canonical YXXØ signal peptides, 28°C, pH 7.4, stoichiometry and Kd N/D", "description": "Recombinant μ4 C-terminal variants were dialyzed overnight at 4°C against excess ITC buffer (50 mM Tris-HCl, pH 7.4, 150 mM NaCl), and an APP peptide ([sequence]), a CD63 peptide (SGYEVM), or a TGN38 peptide (SDYQRL; New England Peptide, Gardner, MA) were also prepared in ITC buffer. All ITC experiments were carried out at 28°C using an iTC200 instrument (GE Healthcare). […] Titration curves were analyzed using Origin software (MicroCal). The binding constant corresponding to each μ4 construct was calculated by fitting the curves to a one-site model.\nIsothermal titration calorimetry of recombinant C-terminal domain of wild-type μ4 with the TGN38 SDYQRL peptide (C), or the CD63 SGYEVM peptide (D)."}, "cytosolic tail of APP": {"tested_on": "cytosolic tail of APP", "assay": "Yeast two-hybrid (Y2H) analysis of μ4 with the APP tail", "format": "binding", "details": "mutations at μ2-binding site; growth on -His plates, 30°C", "source_text": "The cloning of the tail of APP (residues 649–695), full-length human μ4, and all the other yeast two-hybrid (Y2H) constructs, and the cloning of the C-terminal domain of μ4 for expression in E. coli was described previously. To generate a construct for mammalian expression, full-length human μ4 was obtained by PCR amplification and cloned into the EcoRI and SalI sites of pEGFP-N1 (BD BiosciencesClontech, Mountain View, CA) including a stop-codon before the GFP coding sequence. The cloning of APP-GFP carrying the double mutation F615P/D664A was described previously. Single amino acid substitutions were introduced using the QuikChange mutagenesis kit (Stratagene, La Jolla, CA). Y2H assays were performed as previously described. A set of pCI-neo (Promega) constructs encoding hemagglutinin (HA)-epitope tagged wild-type or mutants of human μ4 was a generous gift of J. Bonifacino and R. Mattera (Cell Biology and Metabolism Program, NICHD, NIH). The nucleotide sequences of all recombinant constructs were confirmed by dideoxy sequencing.\nFigure 1 Yeast two-hybrid analysis of the interaction of μ4 with the cytosolic tail of APP. (A) Superposition of the surface and ribbon representations of human wild-type μ4 C-terminal domain (pdb entry 3L81). The insets show an enlargement of the μ4-binding site and the putative μ2-binding site with residues chosen for the yeast two-hybrid (Y2H) analysis. The APP peptide (TYKFFEQ; stick model) bound to the μ4-binding site is in yellow, and the EGFR peptide (FYRALM; stick model; pdb entry 1BW8) superposed to the putative μ2-binding site is in magenta. (B) Sequence alignment of the C-terminal domain of the μ subunits of known crystal structure depicting critical residues at the corresponding μ2- and μ4-binding sites. Disordered loops are in yellow letters, and arrows and cylinders represent β-strands and α-helices, respectively. M.m., Mus musculus; R.n., Rattus norvegicus; H.s., Homo sapiens. (C) and (D) Yeast were co-transformed with plasmids encoding Gal4bd fused to the cytosolic tail of the amyloid precursor protein (APP) indicated on the left, and Gal4ad fused to wild-type or mutant μ4 constructs indicated on top of each panel. (C) Y2H analysis of μ4 with mutations on the YKFFE binding site (μ4-binding site). (D) Y2H analysis of μ4 with mutations on a putative YXXØ binding site (μ2-binding site). Mouse p53 fused to Gal4bd and SV40 large T antigen (T Ag) fused to Gal4ad were used as controls. Co-transformed cells were spotted onto His-deficient (-His) or His-containing (+His) plates and incubated at 30°C. Growth is indicative of interactions. Some mutations on either of the two sites affect the interaction of μ4 with the cytosolic tail of APP."}, "canonical YXXØ signals": {"tested_on": "canonical YXXØ signals", "details": "previous reports; ref [31]; cited from earlier work", "source_text": "as §1"}, "APP-GFP": {"tested_on": "APP-GFP", "assay": "Distribution of APP-GFP in H4 neuroglioma cells", "format": "cell-based, human", "details": "untagged; 36 h; APP-GFP F615P/D664A; TGN46, EEA1 staining", "experimental": "H4 human neuroglioma or MDA-MB-231 human mammary gland epithelial cells obtained from the American Type Culture Collection (Manassas, VA) were maintained in DMEM (H4) or DMEM/F12 (MDA-MB-231) supplemented with 10% (v/v) fetal bovine serum (FBS), 100 U/ml penicillin and 100 µg/ml streptomycin (Life Technologies). Transfections were carried out using Lipofectamine 2000 (Life Technologies) for 1 h at 37°C in the absence of FBS, and cells were analyzed 16, 24 or up to 36-h after transfection, for which we observed no notorious signs of loss in cell viability. SDS-PAGE, immunoblotting, and immunoprecipitation were performed as described. […]\nIndirect immunofluorescence staining of fixed, permeabilized cells was performed as previously described, using sheep polyclonal antibody anti-TGN46 (Serotec), and mouse monoclonal antibody anti-EEA1 (BD Biosciences) or rabbit polyclonal antibody anti-EEA1 (Santa Cruz Biotechnology), followed by the secondary antibodies Alexa-647–conjugated donkey anti-mouse IgG, Alexa-594–conjugated donkey anti-rabbit IgG, or Alexa-594– or -647–conjugated donkey anti-sheep IgG (Life Technologies). […] Quantitative analysis of colocalization was performed as we previously described, with minor modifications. […]"}, "[2]": {"target": "T2, recombinant C-terminal domain of human μ4-D190S (human, UniProt O00189 160-453, D190S)", "T2 construct": "also called D190S mutant; source: E. coli B834(DE3)pLysS, purified (glutathione-Sepharose 4B, TEV cleavage, Ni-NTA, Superdex 200); not shown: GST, N-terminal, cleaved", "T2 sequence (looked up)": "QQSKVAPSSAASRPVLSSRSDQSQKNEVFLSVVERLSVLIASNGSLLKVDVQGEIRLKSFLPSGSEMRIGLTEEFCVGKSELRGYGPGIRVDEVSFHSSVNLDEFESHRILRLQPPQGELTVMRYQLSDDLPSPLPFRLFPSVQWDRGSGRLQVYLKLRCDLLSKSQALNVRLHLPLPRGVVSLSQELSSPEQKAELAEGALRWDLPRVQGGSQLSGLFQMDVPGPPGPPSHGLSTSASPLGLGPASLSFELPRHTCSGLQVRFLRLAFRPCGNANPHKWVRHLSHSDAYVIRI", "assay": "ITC; 28°C, 50 mM Tris-HCl pH 7.4, 150 mM NaCl; chamber 250–500 µM μ4 construct, peptide 2.5–5.0 mM in 16 injections; one-site model", "details": "both partners purified"}},
  "data": [
    {"molecule": "SGYEVM [CD63 SGYEVM peptide, peptide bearing the canonical YXXØ signal of CD63]", "values": [
      {"measurement": "binding to C-terminal domain of μ3A", "setting": "C-terminal domain of μ3A", "value": "bind well"},
      {"measurement": "interaction (ITC)", "setting": "[1]", "value": "undetectable"}
    ]},
    {"molecule": "D190A: μ4 mutant, μ2-binding site, Y2H construct (protein, left off: Gal4 activation domain, end not stated, kept) MISQFFILSSKGDPLIYKDFRGDSGGRDVAELFYRKLTGLPGDESPVVMHHHGRHFIHIRHSGLYLVVTTSENVSPFSLLELLSRLATLLGDYCGSLGEGTISRNVALVYELLDEVLDYGYVQTTSTEMLRNFIQTEAVVSKPFSLFDLSSVGLFGAETQQSKVAPSSAASRPVLSSRSDQSQKNEVFLAVVERLSVLIASNGSLLKVDVQGEIRLKSFLPSGSEMRIGLTEEFCVGKSELRGYGPGIRVDEVSFHSSVNLDEFESHRILRLQPPQGELTVMRYQLSDDLPSPLPFRLFPSVQWDRGSGRLQVYLKLRCDLLSKSQALNVRLHLPLPRGVVSLSQELSSPEQKAELAEGALRWDLPRVQGGSQLSGLFQMDVPGPPGPPSHGLSTSASPLGLGPASLSFELPRHTCSGLQVRFLRLAFRPCGNANPHKWVRHLSHSDAYVIRI", "values": [
      {"measurement": "effect of mutation on interaction of the APP tail with μ4 (Y2H)", "setting": "cytosolic tail of APP", "value": "abrogated"},
      {"measurement": "interaction of μ4 mutant with canonical YXXØ signals", "setting": "canonical YXXØ signals", "value": "loss of these interactions"}
    ]},
    {"molecule": "µ4-F255A: untagged full-length μ4-F255A, overexpressed (protein, UniProt O00189 1-453, looked up, variant F255A, full-length, untagged full-length μ4-F255A, overexpressed) MISQFFILSSKGDPLIYKDFRGDSGGRDVAELFYRKLTGLPGDESPVVMHHHGRHFIHIRHSGLYLVVTTSENVSPFSLLELLSRLATLLGDYCGSLGEGTISRNVALVYELLDEVLDYGYVQTTSTEMLRNFIQTEAVVSKPFSLFDLSSVGLFGAETQQSKVAPSSAASRPVLSSRSDQSQKNEVFLDVVERLSVLIASNGSLLKVDVQGEIRLKSFLPSGSEMRIGLTEEFCVGKSELRGYGPGIRVDEVSAHSSVNLDEFESHRILRLQPPQGELTVMRYQLSDDLPSPLPFRLFPSVQWDRGSGRLQVYLKLRCDLLSKSQALNVRLHLPLPRGVVSLSQELSSPEQKAELAEGALRWDLPRVQGGSQLSGLFQMDVPGPPGPPSHGLSTSASPLGLGPASLSFELPRHTCSGLQVRFLRLAFRPCGNANPHKWVRHLSHSDAYVIRI", "values": [
      {"measurement": "APP redistribution (figure title)", "setting": "APP-GFP", "value": "APP redistributes from endosomes to the TGN"}
    ]},
    {"molecule": "ENPTYKFFEQ (amyloid precursor protein (APP), stretch of the cytosolic tail with the YKFFE signal (Y687 to Q692 printed); numbers count on: APP695; also called APP sorting signal; source: synthetic peptide (New England Peptide))", "note": "[APP peptide ENPTYKFFEQ]", "values": [
      {"measurement": "binding result", "setting": "[2]", "value": "binds"}
    ]}
  ]
}
